Paper PMC11044841
pKd: −log10 of the molar value.

Legend:
IMB1 = experiment: mass spectrometry of G3BP1-GFP interactome; conditions: HEK293T G3BP1/2 DKO cells; read off a plot
TRAP1 = experiment: mass spectrometry of G3BP1-GFP interactome; conditions: HEK293T G3BP1/2 DKO cells; read off a plot
DDX6 = experiment: mass spectrometry of G3BP1-GFP interactome; conditions: HEK293T G3BP1/2 DKO cells; read off a plot
PRC2C = experiment: mass spectrometry of G3BP1-GFP interactome; conditions: HEK293T G3BP1/2 DKO cells; read off a plot
[1] = molecular target: GST-NTF2L (GST-tagged NTF2-like domain of G3BP1) (human); experiment: SPR
NU205 = experiment: mass spectrometry of G3BP1-GFP interactome; conditions: HEK293T G3BP1/2 DKO cells; read off a plot
NUFP2 = experiment: mass spectrometry of G3BP1-GFP interactome; conditions: HEK293T G3BP1/2 DKO cells; read off a plot
NUP93 = experiment: mass spectrometry of G3BP1-GFP interactome; conditions: HEK293T G3BP1/2 DKO cells; read off a plot
P121A = experiment: mass spectrometry of G3BP1-GFP interactome; conditions: HEK293T G3BP1/2 DKO cells; read off a plot
P121C = experiment: mass spectrometry of G3BP1-GFP interactome; conditions: HEK293T G3BP1/2 DKO cells; read off a plot
PABP1 = experiment: mass spectrometry of G3BP1-GFP interactome; conditions: HEK293T G3BP1/2 DKO cells; read off a plot
PABP4 = experiment: mass spectrometry of G3BP1-GFP interactome; conditions: HEK293T G3BP1/2 DKO cells; read off a plot
RBP2 = experiment: mass spectrometry of G3BP1-GFP interactome; conditions: HEK293T G3BP1/2 DKO cells; read off a plot
RS3 = experiment: mass spectrometry of G3BP1-GFP interactome; conditions: HEK293T G3BP1/2 DKO cells; read off a plot

Chain of N-WT (1–25) peptide (P0DTC9 1-25): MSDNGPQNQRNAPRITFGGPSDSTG

G3BP1-EGFP (from UniProt Q13283) F124W was tested, and the other: Log2(fold change) (IMB1) was 6.2 and the other: Log2(fold change) (TRAP1) was 6.

Work on G3BP1-EGFP (from UniProt Q13283) F112A yielded an other: Log2(fold change) (DDX6) of -2.7 and an other: Log2(fold change) (PRC2C) of 5.8.

G3BP1-EGFP (from UniProt Q13283) V11A gave an other: Log2(fold change) (DDX6) of -2.3.

“N-WT (1–25) peptide (from UniProt P0DTC9 1-25)” showed a pKd [1] of 5.94.

Work on G3BP1-EGFP (from UniProt Q13283) F33W yielded an other: Log2(fold change) (IMB1) of 6.7, an other: Log2(fold change) (NU205) of 8.7 and an other: Log2(fold change) (NUFP2) of -9.7. For the same substance, the other: Log2(fold change) (NUP93) was 8.4, the other: Log2(fold change) (P121A) was 2.9 and the other: Log2(fold change) (P121C) was 2.5. The other: Log2(fold change) (PABP1) was -4.1, the other: Log2(fold change) (PABP4) was -8.9 and the other: Log2(fold change) (RBP2) was 8.9. It also gave an other: Log2(fold change) (RS3) of -6.4.
